The values below come from article PMC4031084, “The Phytochrome B/Phytochrome C Heterodimer Is Necessary for Phytochrome C-Mediated Responses in Rice Seedlings” (PLoS ONE, 2014).

Broadly, the stoichiometry N is the number of molecules, sites or subunits per partner or assembly.

One data set concerns the target T1, recombinant rice phyA (Oryza sativa, UniProt Q10DU0).
T1 construct: full length; phytochromobilin-producing E. coli Rosetta 2; homodimer on SEC
T1 sequence (Q10DU0 1-1128): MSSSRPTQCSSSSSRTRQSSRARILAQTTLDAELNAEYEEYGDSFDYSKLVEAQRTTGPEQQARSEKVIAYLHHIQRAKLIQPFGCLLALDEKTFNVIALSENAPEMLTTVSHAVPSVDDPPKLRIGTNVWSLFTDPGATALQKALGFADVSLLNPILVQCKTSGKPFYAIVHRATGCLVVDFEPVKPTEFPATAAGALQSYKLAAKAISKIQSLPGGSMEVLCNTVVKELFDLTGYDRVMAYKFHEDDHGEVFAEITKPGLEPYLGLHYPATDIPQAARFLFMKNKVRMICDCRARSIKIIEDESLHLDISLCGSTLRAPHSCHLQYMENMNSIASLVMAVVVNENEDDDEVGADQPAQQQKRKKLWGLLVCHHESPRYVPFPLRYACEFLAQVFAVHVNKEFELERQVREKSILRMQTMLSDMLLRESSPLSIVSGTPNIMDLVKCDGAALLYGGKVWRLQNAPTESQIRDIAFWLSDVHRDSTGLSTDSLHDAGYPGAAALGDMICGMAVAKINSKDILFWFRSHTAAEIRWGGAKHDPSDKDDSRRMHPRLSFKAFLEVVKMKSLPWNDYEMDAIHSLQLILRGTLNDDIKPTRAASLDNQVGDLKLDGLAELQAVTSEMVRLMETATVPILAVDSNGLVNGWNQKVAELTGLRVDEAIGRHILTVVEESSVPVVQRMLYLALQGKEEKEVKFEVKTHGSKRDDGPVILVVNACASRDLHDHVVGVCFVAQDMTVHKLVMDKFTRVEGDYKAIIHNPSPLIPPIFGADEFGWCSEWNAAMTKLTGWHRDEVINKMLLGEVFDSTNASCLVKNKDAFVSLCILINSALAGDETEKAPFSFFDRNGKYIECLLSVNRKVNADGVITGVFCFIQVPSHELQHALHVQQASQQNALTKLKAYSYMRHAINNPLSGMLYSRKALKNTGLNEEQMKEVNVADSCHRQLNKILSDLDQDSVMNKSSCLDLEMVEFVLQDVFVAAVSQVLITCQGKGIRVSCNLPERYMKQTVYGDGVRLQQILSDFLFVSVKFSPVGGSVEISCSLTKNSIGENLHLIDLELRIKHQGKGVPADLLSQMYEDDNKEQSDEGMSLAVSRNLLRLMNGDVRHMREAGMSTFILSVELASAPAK
As to the kind of experiment: R/FR absorbance difference spectroscopy of the purified holoprotein. It counts as binding. Conditions: covalent; chromophore assembled in E. coli.

A further data set concerns the target T2, recombinant rice phyC (Oryza sativa, UniProt Q10CQ8).
T2 construct: full length; phytochromobilin-producing E. coli Rosetta 2; monomer on SEC
T2 sequence (Q10CQ8 1-1137): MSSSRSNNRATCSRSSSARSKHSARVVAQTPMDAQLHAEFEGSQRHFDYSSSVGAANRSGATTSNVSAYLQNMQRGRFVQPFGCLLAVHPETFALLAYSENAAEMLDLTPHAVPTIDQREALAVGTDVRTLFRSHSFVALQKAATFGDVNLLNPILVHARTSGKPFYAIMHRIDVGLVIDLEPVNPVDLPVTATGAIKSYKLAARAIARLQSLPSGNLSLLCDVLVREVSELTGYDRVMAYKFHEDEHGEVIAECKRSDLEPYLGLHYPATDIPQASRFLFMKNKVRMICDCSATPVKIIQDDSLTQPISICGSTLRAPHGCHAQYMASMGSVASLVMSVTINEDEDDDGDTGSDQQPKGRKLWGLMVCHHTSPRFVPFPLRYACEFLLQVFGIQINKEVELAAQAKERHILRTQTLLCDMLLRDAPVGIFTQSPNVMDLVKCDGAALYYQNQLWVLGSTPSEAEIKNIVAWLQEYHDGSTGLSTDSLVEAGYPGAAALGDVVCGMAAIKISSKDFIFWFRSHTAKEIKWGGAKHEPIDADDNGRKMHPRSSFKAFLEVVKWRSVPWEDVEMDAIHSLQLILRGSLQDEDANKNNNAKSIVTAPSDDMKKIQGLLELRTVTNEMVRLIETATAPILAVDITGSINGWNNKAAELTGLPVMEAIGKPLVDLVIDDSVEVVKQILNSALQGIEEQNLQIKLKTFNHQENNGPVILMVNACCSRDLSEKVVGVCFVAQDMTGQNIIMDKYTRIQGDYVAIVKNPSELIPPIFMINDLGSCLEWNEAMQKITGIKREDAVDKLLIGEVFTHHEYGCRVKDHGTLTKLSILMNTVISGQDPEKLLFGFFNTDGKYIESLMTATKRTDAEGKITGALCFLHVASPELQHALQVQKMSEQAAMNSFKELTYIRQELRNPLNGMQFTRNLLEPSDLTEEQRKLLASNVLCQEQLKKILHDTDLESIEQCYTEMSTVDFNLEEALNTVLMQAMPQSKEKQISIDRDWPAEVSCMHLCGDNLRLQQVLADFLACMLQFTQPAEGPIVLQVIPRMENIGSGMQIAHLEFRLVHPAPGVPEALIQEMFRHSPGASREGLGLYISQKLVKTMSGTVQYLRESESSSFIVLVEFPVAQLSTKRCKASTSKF
The description is as above. The class given is binding. Conditions: covalent; chromophore assembled in E. coli.

Data set [1] concerns the molecule itself. Kind of data set: SEC; protein extracts (1 mg total soluble protein) of etiolated seedlings of WT and phytochrome single and double mutants on Superdex 200 HR 10/30; 50 mM Na-phosphate pH 7.0, 150 mM NaCl, 4 C; fractions immunoblotted with anti-PHYA, anti-PHYB, anti-PHYC; column calibrated with molecular weight standards. (Size exclusion chromatography separates by hydrodynamic size, large species first.)

Data set [2] deals with the molecule itself. As to the kind of experiment: SEC; recombinant phyA or phyC from E. coli fractionated on the same column; fractions #17-#24 immunoblotted with anti-His tag or anti-phytochrome antibodies.

For the molecule `C=CC1=C(C)C(=CC2=NC(=Cc3[nH]c(C=C4NC(=O)C(C)C4=CC)c(C)c3CCC(=O)O)C(CCC(=O)O)=C2C)NC1=O` (centres unmarked) [phytochromobilin], the results for the “R/FR absorbance difference spectroscopy of the purified holoprotein” value on recombinant rice phyA and on recombinant rice phyC were “recombinant phyA was also expressed using the same experimental procedure” and “Recombinant phyC with phytochromobilins as a chromophore was expressed in E. coli”, respectively.

B1: rice phytochrome A (phyA), native (natural protein, UniProt Q10DU0 1-1128, looked up)
chain: T1 sequence (Q10DU0 1-1128)
notes: phytochrome A of rice (Oryza sativa L. cv. Nipponbare), native protein in seedling extracts; source: endogenous, soluble protein extract of etiolated rice seedlings
Regarding B1, in data set [1], the “stoichiometry N” value is 2.

B2: recombinant rice phyA with phytochromobilin (natural protein, UniProt Q10DU0 1-1128, looked up)
chain: T1 sequence (Q10DU0 1-1128)
modifications: phytochromobilin as chromophore
notes: full length rice phytochrome A; also called recombinant phyA; source: E. coli Rosetta 2 cells expressing phytochromobilin, purified; not shown: His6, C-terminal, kept
Consider B2, for which the “stoichiometry N” value in data set [2] was 2.

B3: rice phytochrome B (phyB), native (natural protein, UniProt Q10MG9 1-1171, looked up)
chain: MASGSRATPTRSPSSARPAAPRHQHHHSQSSGGSTSRAGGGGGGGGGGGGGAAAAESVSKAVAQYTLDARLHAVFEQSGASGRSFDYTQSLRASPTPSSEQQIAAYLSRIQRGGHIQPFGCTLAVADDSSFRLLAYSENTADLLDLSPHHSVPSLDSSAVPPPVSLGADARLLFAPSSAVLLERAFAAREISLLNPLWIHSRVSSKPFYAILHRIDVGVVIDLEPARTEDPALSIAGAVQSQKLAVRAISRLQALPGGDVKLLCDTVVEYVRELTGYDRVMVYRFHEDEHGEVVAESRRNNLEPYIGLHYPATDIPQASRFLFRQNRVRMIADCHAAPVRVIQDPALTQPLCLVGSTLRSPHGCHAQYMANMGSIASLVMAVIISSGGDDDHNISRGSIPSAMKLWGLVVCHHTSPRCIPFPLRYACEFLMQAFGLQLNMELQLAHQLSEKHILRTQTLLCDMLLRDSPTGIVTQSPSIMDLVKCDGAALYYHGKYYPLGVTPTEVQIKDIIEWLTMCHGDSTGLSTDSLADAGYPGAAALGDAVSGMAVAYITPSDYLFWFRSHTAKEIKWGGAKHHPEDKDDGQRMHPRSSFKAFLEVVKSRSLPWENAEMDAIHSLQLILRDSFRDSAEGTSNSKAIVNGQVQLGELELRGIDELSSVAREMVRLIETATVPIFAVDTDGCINGWNAKVAELTGLSVEEAMGKSLVNDLIFKESEETVNKLLSRALRGDEDKNVEIKLKTFGPEQSKGPIFVIVNACSSRDYTKNIVGVCFVGQDVTGQKVVMDKFINIQGDYKAIVHNPNPLIPPIFASDENTCCSEWNTAMEKLTGWSRGEVVGKLLVGEVFGNCCRLKGPDALTKFMIVLHNAIGGQDCEKFPFSFFDKNGKYVQALLTANTRSRMDGEAIGAFCFLQIASPELQQAFEIQRHHEKKCYARMKELAYIYQEIKNPLNGIRFTNSLLEMTDLKDDQRQFLETSTACEKQMSKIVKDASLQSIEDGSLVLEKGEFSLGSVMNAVVSQVMIQLRERDLQLIRDIPDEIKEASAYGDQYRIQQVLCDFLLSMVRFAPAENGWVEIQVRPNIKQNSDGTDTMLFLFRFACPGEGLPPEIVQDMFSNSRWTTQEGIGLSICRKILKLMGGEVQYIRESERSFFHIVLELPQPQQAASRGTS
notes: phytochrome B of rice (Oryza sativa L. cv. Nipponbare), native protein in seedling extracts; Native photoreceptor; source: endogenous, soluble protein extract of rice seedlings (etiolated or white-light-grown)
In the case of B3, the “stoichiometry N” value in data set [1] was found to be 2.
